From the nanobody polyreactivity screen of Harvey et al. (2022)

Assay: yeast display, Sf9 membrane polyspecificity reagent, FACS + sequencing; frameworks hold sequencing errors
Procedure, shortened: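 After 36–48 hours of galactose induction, yeast (Saccharomyces cerevisiae BJ5465) displaying a synthetic nanobody library were stained at 4 °C for 1 hour with 10% biotinylated, detergent-solubilized Sf9 membrane reagent. Streptavidin microbeads enriched the stained cells before FACS sorting into low and high (top ~1%) gates on anti-HA and streptavidin fluorescence. Each clone's polyreactivity label reflects its gate of origin.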

Row | Sequence | polyreactivity (PSR sort gate)
1 | QVQLVESGGGLVQAGGSLSLSCAASGRSWFGNAMGWYRQAPGKERELVASISTRGGSTYYADSVKGRFTISRDNAKNTVYLQMNSLKPEDTAVYYCAKRGRDRRIYGYWGQGTQVTVSS | high polyreactivity
2 | QVQLVESGGGLVQAGGSLRLSCAASGFIFWPYAMGWYRQAPGKERELVAAITTGGSTNYADSVKGRFTISRDNAKNTVYLQMNSLKPEDTAVYYCAKGYYFGYYEFDYWGQGTQVTVSS | high polyreactivity
3 | QVQLVESGGGKVQAGGSLRLSCPPSGRTFYYYAMGWYRQAPGKVRELVAVIRSSGDSTYYADSVKGRFTISRDNEKNTVYLQMKSLKPDDTAVDYCAADAPSRSYSWHPRYYYWGQGSQVTVSS | low polyreactivity
4 | QDQLVESGGGLVQAGGSLRLSCAASVFTFRYYAMGWYRQAPGKEREFVATISWSGGSTYYADSVKGRFTISRDNAKNTVYLQMNSLKPEDTAVYYCAAGRVGTTTLEFYYCGQGTQVTVSS | high polyreactivity
5 | QVQLVESGGGLVQAGGSLRLSCAASGITFVYNAMGWYRQAPGKERELVAAIDFGAGSTYYADSVKGRFTISRDNAKNTVYLPMNSLKPEDTAVYYCAAGAARWYWPYDYWGQGTQVTVSS | low polyreactivity
6 | QVQLVESGGGLVQAGGSLRLSCAASGSTFSANTMGWYRQAPGKERELVAGITNTGDTYYADSVKGRFTISRDNAKNTVYFQMNSLKPEDTAVYYCAADSWRRTDGAYWSTVYYWGQGTQVTVSS | low polyreactivity
7 | QVQLVESAAGLVQAGGSLRLSCAASGRIFGSYVMGWYRQAPGKERELVAAISASGGSTYYADSVKGRFTISRDNAKNTVYLQMNSLKPEDTAVYYCAATSIYTWWDLLDYWGQGTQVTVSS | high polyreactivity
8 | QVQLVESWGGLFQAGGSLRLSCAASGSIFVWYAMGRSRQAPGKEMELVAVISYGGDRTSYADSVKGRFTISRDNAKNTVYLQMNSLKPEDTAVYYCAARPFYRGYYYWGQGTQVTVSS | high polyreactivity
9 | QVQLVESGGGLVQAGGSLRLSCAASGIIFWAYALGWYRQAPGKERELVAVISRGGSTNYADSVKGRFTISRDNAKNTVYLQMNSLKPEDTAVYYCAARYGWGQGTQVTVSS | high polyreactivity
10 | QVQLVESGGGLVQAGGSLRLRCAASGSTFKFYAMGWYRQAPGKEREFVAAITGSGGSTYYADSVKGRFTISRDNAKNTVYLQMNSLKPEDTAVYYCNTTPVLQLYYWGQGTQVTVSS | low polyreactivity
11 | QVQLVESGGGLVQAGGSLRLSCAASGSIFVPYAMGWYRQAPGKERELVAAISRRGGRTNYADSVKGRFTISRDNAKNTVYLQMNSLKPEDTAVYYCAKYPIYYGLTRYGYWGHGTQVTVSS | high polyreactivity
12 | QVQLVESGGGLVQAGGSLRLSCAASGRTIRGYAMGWYRQAPGKEREFVASITWNSVSTSYADSVKGRFTISRDNAKNTVYLQMNSLKPEDTAVYYCNRRTGSYGRTPVGKGEYYYWGQGTQVTVSS | high polyreactivity
13 | QVQLVESGGGLVQAGGSLRLSCAASGITFGRYAMGSYRQPPGKEREFVAAISWSGGSTYYADSVKGRFTISLDNATNPVYLQINSLKPEDTAVYYCAVEWYYTSYHIRVYRDNYWGQGTQVTVSS | high polyreactivity
14 | QVQLEDSGGGLVQAGGSLRLSSAASGIIFYPNAMGWYRQSPGKERELVAAITSDGSTYYADSVKGRFTISRDNAKNTVYLQMNSLKPEDTAVYYCDDWDDYGYDYWGQGTQVTVSS | low polyreactivity
15 | QVQLVESGGGLVQAGGSLRLSCAASGRTFGKNAMGWYRQAPAKERELVAAISWGGGRTFYADSVKGRFTISRDNAKNTVYLQMNSLKPEDTAVYYCNAVQYPRRAKYDYWGQGTQVTVSS | low polyreactivity
16 | QVQLVESGGGLVQAGGSLRLSCAASGITFYFNAMGWYRQAPGKERELVAAITFSGSSTYYADSVKGRFTISRDNAKNTVYLQMNSQKPEDSAVYYCAAYLTRYDFRWHTYYYWGLGTQVTVSS | low polyreactivity
17 | QVQIVESGGGLVQAGGSHRLSCAASGSTFASNTKGWYTQAPGKERELVATITQSGGTRYYADSVKGRFTISRDNAKYTVYFQMNSLKPEDTAVYDCATDVGYFYTVVGGYDYWGQGTQVTVSA | low polyreactivity
18 | RVQLVESGGGLVQAGGSLRLSCAASGRIFAQYPMGWYRKAPRKERELLAAITTTGRTYYADSVKGRFTISRDNAKNTVYLQMNSLKPEDTAVSYCAVGYHAPNVSTSDPRYDYWGQGTQVTVSS | low polyreactivity
19 | QVQLQESGGGLVQAGGSLRLSCAASGTIFTARIMGWYRQAPGKERELVATITDGGNTNHADSVKCRFTISRDNAKITVYLQMNSLKPEDAAVYYCAAGEVDNDTLLYWGQGSQVTVSS | low polyreactivity
20 | QVQLVESGGGLVQAGGSLRLSCAASGLIFSPYAMGWYRQAPGKERELVAAITWSGGSTYYADSVKGRFTISRDNAKNTVYLQMNSLKPEDTAVYYCNAVTTRLALYDYWGQGTQVTVSS | high polyreactivity
21 | QVQLVESGGGLVQAGGSLRLSCAASGRTFGPNGMGWYRQAPGKERELLAVITSSGGRTYYADSVKGRFTISRDNAKNTVYLQMNSLKPEDTAVYYCAADAKKFGGTKNAELDYWGQGTQVTVSS | low polyreactivity
22 | QVQLVESGGGLVQAGGSLRLSCAASGSTFQPYAMGWYRQAPGKEREFVAAIRWGTGSTYYADSVKGRFTISRDNAKNTVYLQMNILKPEDTAVYYCAKRRVSASREYYWGQGTQVTVSS | high polyreactivity

Row | Sequence | polyreactivity (PSR sort gate)
23 | QVQLVESGGGLVQAGGSLRLSSAASGSTFDHYAMGWYRQAPGKERELVAAITWSGGRTYYADSVKGRFTISRDNAKNTVYFQMNSLKPEDTAVYYCAARGYQIRVANYKYDSWGQGTQVTVSS | low polyreactivity
24 | QVQLVESGGGLVQAGGSLRLSCAASGRTFVYYAMGWYSQAPGKERELVAAISSSGGSTSYADSVNGRFTISRDNAKNTVYLQMNSVKPEDTAVYYCAADVSVSGYYYWGQGTQVTVSS | high polyreactivity
25 | QVQLVESGGGLVQAGGSLRLSCAASGRTVSYYAMGWYRQAPGKEREFVAAISSSGGSTNYADSVKGRFTISRDNAKNTVYLQMNSLKPEDTAVYYCNAGSGYTGVYRWYYWRYDYWGQGTQVTVSS | low polyreactivity
26 | QVHLVESGGGLVQAGGSLRLSCAASGSILYGNAMGWYRQAPGKERELVAAISYSGGRTYYADSVKGRFTISRDNAKNTVYLQMNSLKPEDTAVYYCAALHSGRVQNFDYWGQGTQVTVSS | high polyreactivity
27 | QVQLVESGGGLVQAGGSLRLSCAASGNIFSPYAMGWYRPAPGKERELVAAISSGDSTYYADSVKGRFTISRDNAKNTVYLQMNSLKPEDTAVYYCAADANYSNYQYYEFDYWGQGTQVTVSS | low polyreactivity
28 | QVQLVESGGGLDQAGGSLRLSCAASGRTFTRYALCWYRQAPGNVRELVATMTRGARTYYADSVKGRFTISRDNAKNTVYLQMNSLKPVDTAVYYCNAVYSFLSPDQMGYWGQGTQVTVSS | high polyreactivity
29 | QVQLVESGGGLVQAGGSLRLSCAASGSIFGTNTMGWYRQAAGKERVLVAAIRLSDSSTYYADSVKGRFTISRDNAKKTVYLQMNSLKPGDTAVYYCAVDYRAYHYYRYDYWGQGTQVTVSS | low polyreactivity
30 | QVQLVESVGGLVQAGGSLRLSCAASGSIISFNAMGWYRQAPRKERELVASISRNGGSSYYADSVKGRFTISRDNAKNTVYLQMNSLKPEDTAVYYCAVKVRNRRYGYWGQGTQVTVSS | high polyreactivity
31 | QVQLVESGGGLVQAGGSLRLSSAASGFIFYDYAMGWYRQAPGKERALVAAIRSSDGGTYYADSVKGRFTISRDNAKNTVYLQMNSLKPEDTAVYYCAARPSYYDYDYWGQGTQVTVSS | low polyreactivity
32 | QVQLVESGGGLVQAGGSLRLSCAASGRIFYPYAMGWSRQAPGKERELVASISGRGTTTYYADSVKGRFTISRDNAKNTVYLQMNSLKPEDTGVYYCNAYPPTQYGYYYWGQGTQVTVSS | high polyreactivity
33 | QVQLVESGGGLVQAGGSLRLSCAASGYNFWYNGMGWYRQAPGKERELVAAITSSSGTTYYADSVKGRFTISRDNAKTTVYLQMNSLKPVDTSVYYFNAVLSSNTQCRYPGDYWGQGTQVTVSS | low polyreactivity
34 | QVQLVESVGGLVQAGGSLRLSCAASGFTFRKYAMGWYRQAPGKERELVAGISWSGGTTYYADSVKGRFTISRDNAKNTVYLQMNSLKPEDTAVYYCNAKRVQVFAGYSYDYWGQGTQVTVSS | high polyreactivity
35 | QVQLVESGGGLVQAGGSLRLSCAASGRIFSLNAMGWYRQAPGKERELVAGIRKSGGSTYYADSVKGRFTISRDNAKNTVYLQMNSLKPEDTAVYYCAAQPALTYRFYYWGQGTQVTVSS | high polyreactivity
36 | QVQLVESGGGLVQAGGSLRLSCAASGSTYDPNAMGRYRQAPGKERELVAAISWSGGSTYYADSVKGRFTISRDNAKNTVYLQMYSLKPEDTAVSYCNAQFYDSYSYTNDYWGQGTLVTVSS | low polyreactivity
37 | QVQLVESGGGLVQAGGSLRLSCAASGFTLDVYVMGWYRPAPGKERELVAAIRDSDDDTSYADSVKGRFTISRDNAKNTVYLQMNSLKPEDTAVYYCAVDYPTQPWGYYLLMDYWGQGTQVTVSS | low polyreactivity
38 | QVHLVESGGGLVQAGGSLRLSCAASGSNCTYYAMGWYRQAPGKERELVAAIDFSGASTSYADSVKGRFTISRDNAKNTVYFQMNSLKPEDTAVYYCAAVLYWYPPYYYWGQGTQVTVSS | low polyreactivity
39 | QVQLVESGGGLVQAGGSLRLSCAASGLPFKSNAMGWYRQAPGKERELVASISKRGGTTYYADSVKGRFTISRDNAKNTVYLQIKSLKPEDTAVYYCAAQSRATTYSWWTGSDYWGQGTEVTVSS | high polyreactivity
40 | QVQLVESGGGLVQAGGSLRLSCAASGSIFVYNDMGWYRQAPGKERELVAGIDWSGDRTYADSVKGRFTISRDNAKNTVYLQMNSLKPEDTAVYYCNADEWRWDEIIPYAVDYWGQGTQVTVSS | low polyreactivity
41 | QVQLVESGGGLVQAGGSLGLSCAASGRTFSFYGMGWYRQAPGKERELVAAINSDSRTNYADSVKGRFTISRDNAKNTVYLQMNSLKPEDTAVYYCNAYWYTSTGQYSYEYWGQGTQVTVSS | low polyreactivity
42 | QFQLVESGGGLVQAGGSLRLSCAASGYIFVRYTMGWYRQAPGKERELVAAISWGGGSTYYADSVKGLFTISRDNAKNTVYLQMNSLKPEDTAVYYCNNRYIQLYDYWGQGTQVTVSS | low polyreactivity
43 | QVQLVESGGGLVQAGGSLRLSCAASGSIFQGYSMGWYRQAPGKERELVAAITASGGSTYYADSVKGRFTISRDNAKNTVSLKMNSLKPEDTAVYYCATDSYWRHDLYRYEYWGQGSQVTVSS | high polyreactivity
